Reference: US20240209106A1 (BEIGENE SWITZERLAND, published 2024)
Where two headings read alike, the source gives them in different places.

T1: human CEA on cells (human, UniProt P06731 35-685)
T1 construct: whole, on cells; also called CT26/CEA; MKN45
T1 sequence (looked up): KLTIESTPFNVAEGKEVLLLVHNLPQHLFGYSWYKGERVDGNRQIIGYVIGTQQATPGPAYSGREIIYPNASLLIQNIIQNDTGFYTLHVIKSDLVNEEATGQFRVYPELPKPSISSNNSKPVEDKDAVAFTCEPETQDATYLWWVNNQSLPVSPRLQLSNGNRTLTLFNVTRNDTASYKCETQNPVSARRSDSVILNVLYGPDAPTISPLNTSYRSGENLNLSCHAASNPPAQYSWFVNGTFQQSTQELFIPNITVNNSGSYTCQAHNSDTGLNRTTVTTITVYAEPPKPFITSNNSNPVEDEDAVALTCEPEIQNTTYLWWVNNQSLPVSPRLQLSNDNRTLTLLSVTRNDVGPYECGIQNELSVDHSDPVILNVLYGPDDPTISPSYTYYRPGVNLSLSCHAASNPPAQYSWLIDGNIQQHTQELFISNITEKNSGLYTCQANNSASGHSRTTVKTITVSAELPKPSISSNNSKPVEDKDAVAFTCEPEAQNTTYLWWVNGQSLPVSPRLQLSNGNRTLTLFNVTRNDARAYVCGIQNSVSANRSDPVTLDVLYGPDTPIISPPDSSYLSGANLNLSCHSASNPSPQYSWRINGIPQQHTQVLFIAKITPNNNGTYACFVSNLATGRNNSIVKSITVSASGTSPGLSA


Tests used:
human CEA on cells [1] = molecular target: T1, human CEA on cells; assay: flow cytometry on CT26/CEA cells
human CD137 ECD-mIgG2a [2] = molecular target: human CD137 ECD-mIgG2a (human); assay: SPR, human CD137 ECD-mIgG2a
[3] = molecular target: T2, full-length human CD137 (huCD137) (human, UniProt Q07011 24-255); assay: flow cytometry on Hut78/huCD137 cells
T2 construct: On transduced Hut78 cells (Hut78/huCD137), transiently on HEK293 cells, or natively on PBMC/T cells; also called TNFRSF9; 4-1BB

human CD137 ECD-mIgG2a [4] = molecular target: human CD137 ECD-mIgG2a (human); assay: SPR, antibody captured on anti-human Fc surface; analyte taken as human CD137 ECD-mIgG2a
[5] = molecular target: T2, full-length human CD137 (huCD137); assay: cell-based or functional assay
human CD137 ECD-mIgG2a [6] = molecular target: human CD137 ECD-mIgG2a (human); assay: SPR (BIAcore T-200): antibody captured on anti-human IgG (Fc) CM5 chip, human CD137 ECD-mIgG2a as analyte, 1:1 Langmuir fit
Method: Characterization of anti-huCD137 VH domain antibodies were made by SPR assays using BIAcore™ T-200 (GE Life Sciences). Briefly, anti-human IgG (Fc) antibody was immobilized on an activated CM5 biosensor chip (Cat.: BR100839, GE Life Sciences). Anti-huCD137 domain antibodies were flowed over the chip surface and captured by anti-human IgG (Fc) antibody. […] The equilibrium dissociation constant (KD) was calculated as the ratio koff/kₒₙ.

human CD137 ECD-mIgG2a [7] = molecular target: human CD137 ECD-mIgG2a (human); assay: SPR, multispecific antibody captured on anti-human IgG Fc chip, human CD137 ECD-mIgG2a flowed over
Method: Briefly, anti-human IgG (Fc) antibody was immobilized on an activated CM5 biosensor chip (Cat.: BR100839, GE Life Sciences). Anti-huCD137 monoclonal antibodies or multispecific antibodies were flown through the chip surface and captured by anti-human IgG (Fc) antibody. […] The equilibrium dissociation constant (KD)) was calculated as the ratio koff/kₒₙ.

human CEA on cells [8] = molecular target: T1, human CEA on cells; assay: flow cytometry on CT26/CEA cells; remark: listed apart in the source
From the text: (§1) Cell fluorescence was quantified using a flow cytometer (Guava easyCyte™ 8HT, Merck-Millipore, USA).

[9] = molecular target: T2, full-length human CD137 (huCD137); assay: flow cytometry on Hut78/huCD137 cells; remark: listed apart in the source
From the text: as §1

human CD137 ECD-mIgG2a [10] = molecular target: human CD137 ECD-mIgG2a (human); assay: SPR, human CD137 ECD-mIgG2a; remark: listed apart in the source
[11] = molecular target: T2, full-length human CD137 (huCD137); assay: flow cytometry on Hut78/huCD137 cells; remark: listed apart in the source

human CD137 ECD-mIgG2a (human), sequence (chain, as listed by the source limits assumed): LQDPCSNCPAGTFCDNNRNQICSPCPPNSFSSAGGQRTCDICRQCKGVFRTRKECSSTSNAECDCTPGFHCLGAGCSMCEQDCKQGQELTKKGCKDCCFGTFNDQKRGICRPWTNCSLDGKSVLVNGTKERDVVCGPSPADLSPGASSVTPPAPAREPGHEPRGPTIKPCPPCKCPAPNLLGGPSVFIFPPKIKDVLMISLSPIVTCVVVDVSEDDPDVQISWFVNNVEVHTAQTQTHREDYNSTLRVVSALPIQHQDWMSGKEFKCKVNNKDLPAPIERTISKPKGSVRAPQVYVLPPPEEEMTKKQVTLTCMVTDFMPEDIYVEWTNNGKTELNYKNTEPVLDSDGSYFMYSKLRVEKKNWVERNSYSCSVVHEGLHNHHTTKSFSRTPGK
T2 sequence (Q07011 24-255 limits assumed): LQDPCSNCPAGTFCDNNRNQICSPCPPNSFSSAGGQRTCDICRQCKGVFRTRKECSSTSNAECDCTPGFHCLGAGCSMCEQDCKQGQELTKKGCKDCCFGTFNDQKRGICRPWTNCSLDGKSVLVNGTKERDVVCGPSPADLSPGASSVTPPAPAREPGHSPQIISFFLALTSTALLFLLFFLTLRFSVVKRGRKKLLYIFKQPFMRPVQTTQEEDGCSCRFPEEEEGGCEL

Binder	EC50 (human CEA on cells [1]) [µg/mL]	Kd (human CD137 ECD-mIgG2a [2]) [nM]	EC50 [3] [µg/mL]	Kd (human CD137 ECD-mIgG2a [4]) [nM]	koff (human CD137 ECD-mIgG2a [4]) [s⁻¹]	kon (human CD137 ECD-mIgG2a [4]) [M⁻¹ s⁻¹]	Functions EC50(ug/ml), PBMC based cytokine release assay [5] [µg/mL]	Functions Top, PBMC based cytokine release assay [5]	Kd (human CD137 ECD-mIgG2a [6]) [nM]	koff (human CD137 ECD-mIgG2a [6]) [s⁻¹]	kon (human CD137 ECD-mIgG2a [6]) [M⁻¹ s⁻¹]	Kd (human CD137 ECD-mIgG2a [7]) [nM]	EC50 (human CEA on cells [8]) [µg/mL]	EC50 [9] [µg/mL]	Kd (human CD137 ECD-mIgG2a [10]) [nM]	EC50 [11] [µg/mL]
A-CD137×CEA (bispecific antibody, human IgG1, kappa, Symmetric IgG-like; inert Fc; also called Format A) heavy: QVQLVQSGAEVKKPGASVKVSCKASGYIFTSYYLHWVRQAPGQGLEWIGYINPQTGKTSYAQKFQGRVTMTRDTSTSTVYMELSSLRSEDTAVYYCAREYGNYNYPLDYWGQGTLVTVSSASTKGPSVFPLAPSSKSTSGGTAALGCLVKDYFPEPVTVSWNSGALTSGVHTFPAVLQSSGLYSLSSVVTVPSSSLGTQTYICNVNHKPSNTKVDKKVEPKSCDKTHTCPPCPAPPAAGPSVFLFPPKPKDTLMISRTPEVTCVVVDVSHEDPEVKFNWYVDGVEVHNAKTKPREEQYNSTYRVVSVLTVLHQDWLNGKEYKCKVSNKALAAPIEKTISKAKGQPREPQVYTLPPSREEMTKNQVSLTCLVKGFYPSDIAVEWESNGQPENNYKTTPPVLDSDGSFFLYSKLTVDKSRWQQGNVFSCSVMHEALHNHYTQKSLSLSPGKGGGGSEVQLLESGGGLVQPGGSLRLSCAASGFMLSAEDVGWVRQAPGKGLEWVSAILDFGGSTYYADSVKGRFTISRDNSKNTLYLQMNSLRAEDTAVYYCARVVYHAGGGVTFDYWGQGTLVTVSS light: DIQMTQSPSSLSASVGDRVTITCRASENQYGYLAWYQQKPGKVPKLLIYNYKNLVEGVPSRFSGSGSGTDFTLTISSLQPEDVATYYCQHHLGTPYTFGQGTKVEIKRTVAAPSVFIFPPSDEQLKSGTASVVCLLNNFYPREAKVQWKVDNALQSGNSQESVTEQDSKDSTYSLSSTLTLSKADYEKHKVYACEVTHQGLSSPVTKSFNRGEC	0.75	360	0.57	360	0.00215	5970										
D-CD137×CEA (bispecific antibody, human IgG1, kappa, Symmetric IgG-like; also called Format D) heavy: EVQLLESGGGLVQPGGSLRLSCAASGFMLSAEDVGWVRQAPGKGLEWVSAILDFGGSTYYADSVKGRFTISRDNSKNTLYLQMNSLRAEDTAVYYCARVVYHAGGGVTFDYWGQGTLVTVSSSGGGGSQVQLVQSGAEVKKPGASVKVSCKASGYIFTSYYLHWVRQAPGQGLEWIGYINPQTGKTSYAQKFQGRVTMTRDTSTSTVYMELSSLRSEDTAVYYCAREYGNYNYPLDYWGQGTLVTVSSASTKGPSVFPLAPSSKSTSGGTAALGCLVKDYFPEPVTVSWNSGALTSGVHTFPAVLQSSGLYSLSSVVTVPSSSLGTQTYICNVNHKPSNTKVDKKVEPKSCDKTHTCPPCPAPPAAGPSVFLFPPKPKDTLMISRTPEVTCVVVDVSHEDPEVKFNWYVDGVEVHNAKTKPREEQYNSTYRVVSVLTVLHQDWLNGKEYKCKVSNKALAAPIEKTISKAKGQPREPQVYTLPPSREEMTKNQVSLTCLVKGFYPSDIAVEWESNGQPENNYKTTPPVLDSDGSFFLYSKLTVDKSRWQQGNVFSCSVMHEALHNHYTQKSLSLSPGK light: DIQMTQSPSSLSASVGDRVTITCRASENQYGYLAWYQQKPGKVPKLLIYNYKNLVEGVPSRFSGSGSGTDFTLTISSLQPEDVATYYCQHHLGTPYTFGQGTKVEIKRTVAAPSVFIFPPSDEQLKSGTASVVCLLNNFYPREAKVQWKVDNALQSGNSQESVTEQDSKDSTYSLSSTLTLSKADYEKHKVYACEVTHQGLSSPVTKSFNRGEC	3.78	78	2.28													
Format A - BGA-3386 (bispecific antibody, human IgG1, kappa, Light chain by the description of Format A) heavy: QVQLVQSGAEVKKPGASVKVSCKASGYIFTSYYLHWVRQAPGQGLEWIGYINPQTGKTSYAQKFQGRVTMTRDTSTSTVYMELSSLRSEDTAVYYCAREYGNYNYPLDYWGQGTLVTVSSASTKGPSVFPLAPSSKSTSGGTAALGCLVKDYFPEPVTVSWNSGALTSGVHTFPAVLQSSGLYSLSSVVTVPSSSLGTQTYICNVNHKPSNTKVDKKVEPKSCDKTHTCPPCPAPPAAGPSVFLFPPKPKDTLMISRTPEVTCVVVDVSHEDPEVKFNWYVDGVEVHNAKTKPREEQYNSTYRVVSVLTVLHQDWLNGKEYKCKVSNKALAAPIEKTISKAKGQPREPQVYTLPPSREEMTKNQVSLTCLVKGFYPSDIAVEWESNGQPENNYKTTPPVLDSDGSFFLYSKLTVDKSRWQQGNVFSCSVMHEALHNHYTQKSLSLSPGKGGGGSEVQLLESGGGLVQPGGSLRLSCAASGFTVSAEDVGWVRQAPGKGLEWVSAILDKGGSTYYAESVKGRFTISRDNAKNTLYLQMSSLRAEDTAVYYCARIVYHAGGGVTFDTWGQGTLVTVSS light: DIQMTQSPSSLSASVGDRVTITCRASENQYGYLAWYQQKPGKVPKLLIYNYKNLVEGVPSRFSGSGSGTDFTLTISSLQPEDVATYYCQHHLGTPYTFGQGTKVEIKRTVAAPSVFIFPPSDEQLKSGTASVVCLLNNFYPREAKVQWKVDNALQSGNSQESVTEQDSKDSTYSLSSTLTLSKADYEKHKVYACEVTHQGLSSPVTKSFNRGEC							0.0768	1950	21.4	0.000953	44600	21.4	0.21	0.21		

Second part, the binder after the results:

EC50 (human CEA on cells [1]) [µg/mL]	Kd (human CD137 ECD-mIgG2a [2]) [nM]	EC50 [3] [µg/mL]	Kd (human CD137 ECD-mIgG2a [4]) [nM]	koff (human CD137 ECD-mIgG2a [4]) [s⁻¹]	kon (human CD137 ECD-mIgG2a [4]) [M⁻¹ s⁻¹]	Functions EC50(ug/ml), PBMC based cytokine release assay [5] [µg/mL]	Functions Top, PBMC based cytokine release assay [5]	Kd (human CD137 ECD-mIgG2a [6]) [nM]	koff (human CD137 ECD-mIgG2a [6]) [s⁻¹]	kon (human CD137 ECD-mIgG2a [6]) [M⁻¹ s⁻¹]	Kd (human CD137 ECD-mIgG2a [7]) [nM]	EC50 (human CEA on cells [8]) [µg/mL]	EC50 [9] [µg/mL]	Kd (human CD137 ECD-mIgG2a [10]) [nM]	EC50 [11] [µg/mL]	Binder
						0.233	1720	151	0.00604	39900	164	0.5	0.5			Format A - BGA-9442 (bispecific antibody, human IgG1, kappa, Light chain by the description of Format A) heavy: QVQLVQSGAEVKKPGASVKVSCKASGYIFTSYYLHWVRQAPGQGLEWIGYINPQTGKTSYAQKFQGRVTMTRDTSTSTVYMELSSLRSEDTAVYYCAREYGNYNYPLDYWGQGTLVTVSSASTKGPSVFPLAPSSKSTSGGTAALGCLVKDYFPEPVTVSWNSGALTSGVHTFPAVLQSSGLYSLSSVVTVPSSSLGTQTYICNVNHKPSNTKVDKKVEPKSCDKTHTCPPCPAPPAAGPSVFLFPPKPKDTLMISRTPEVTCVVVDVSHEDPEVKFNWYVDGVEVHNAKTKPREEQYNSTYRVVSVLTVLHQDWLNGKEYKCKVSNKALAAPIEKTISKAKGQPREPQVYTLPPSREEMTKNQVSLTCLVKGFYPSDIAVEWESNGQPENNYKTTPPVLDSDGSFFLYSKLTVDKSRWQQGNVFSCSVMHEALHNHYTQKSLSLSPGKGGGGSEVQLLESGGGLVQPGGSLRLSCAASGFTISAEDVGWVRQAPGKGLEWVSAILDSGGSTYYAESVKGRFTISRDNAKNTLYLQMSSLRAEDTAVYYCARYVYHAGGGVTFDLRGQGTQVTVSS light: DIQMTQSPSSLSASVGDRVTITCRASENQYGYLAWYQQKPGKVPKLLIYNYKNLVEGVPSRFSGSGSGTDFTLTISSLQPEDVATYYCQHHLGTPYTFGQGTKVEIKRTVAAPSVFIFPPSDEQLKSGTASVVCLLNNFYPREAKVQWKVDNALQSGNSQESVTEQDSKDSTYSLSSTLTLSKADYEKHKVYACEVTHQGLSSPVTKSFNRGEC
											649			669	3.23	Format A-BGA-7556 (bispecific antibody, human IgG1, kappa, Light chain by the description of Format A; also called BGA-7556 in Format A-CD137 × CEA) heavy: QVQLVQSGAEVKKPGASVKVSCKASGYIFTSYYLHWVRQAPGQGLEWIGYINPQTGKTSYAQKFQGRVTMTRDTSTSTVYMELSSLRSEDTAVYYCAREYGNYNYPLDYWGQGTLVTVSSASTKGPSVFPLAPSSKSTSGGTAALGCLVKDYFPEPVTVSWNSGALTSGVHTFPAVLQSSGLYSLSSVVTVPSSSLGTQTYICNVNHKPSNTKVDKKVEPKSCDKTHTCPPCPAPPAAGPSVFLFPPKPKDTLMISRTPEVTCVVVDVSHEDPEVKFNWYVDGVEVHNAKTKPREEQYNSTYRVVSVLTVLHQDWLNGKEYKCKVSNKALAAPIEKTISKAKGQPREPQVYTLPPSREEMTKNQVSLTCLVKGFYPSDIAVEWESNGQPENNYKTTPPVLDSDGSFFLYSKLTVDKSRWQQGNVFSCSVMHEALHNHYTQKSLSLSPGKGGGGSEVQLLESGGGLVQPGGSLRLSCAASGFTLSAEDVGWVRQAPGKGLEWVSAILDFGGSTYYAESVKGRFTISRDNAKNTLYLQMSSLRAEDTAVYYCARVVYHAGGGVTFDYRGQGTQVTVSS light: DIQMTQSPSSLSASVGDRVTITCRASENQYGYLAWYQQKPGKVPKLLIYNYKNLVEGVPSRFSGSGSGTDFTLTISSLQPEDVATYYCQHHLGTPYTFGQGTKVEIKRTVAAPSVFIFPPSDEQLKSGTASVVCLLNNFYPREAKVQWKVDNALQSGNSQESVTEQDSKDSTYSLSSTLTLSKADYEKHKVYACEVTHQGLSSPVTKSFNRGEC
